From PMC3761943 (Cell, 2013)

Columns and labels:
[1] = molecular target: T1, kinesin-4-GFP (human full-length kinesin-4, GFP-labeled) (human), O95239; assay: single-molecule fluorescence intensity analysis; settings: remark: other sources report otherwise
T1 chain: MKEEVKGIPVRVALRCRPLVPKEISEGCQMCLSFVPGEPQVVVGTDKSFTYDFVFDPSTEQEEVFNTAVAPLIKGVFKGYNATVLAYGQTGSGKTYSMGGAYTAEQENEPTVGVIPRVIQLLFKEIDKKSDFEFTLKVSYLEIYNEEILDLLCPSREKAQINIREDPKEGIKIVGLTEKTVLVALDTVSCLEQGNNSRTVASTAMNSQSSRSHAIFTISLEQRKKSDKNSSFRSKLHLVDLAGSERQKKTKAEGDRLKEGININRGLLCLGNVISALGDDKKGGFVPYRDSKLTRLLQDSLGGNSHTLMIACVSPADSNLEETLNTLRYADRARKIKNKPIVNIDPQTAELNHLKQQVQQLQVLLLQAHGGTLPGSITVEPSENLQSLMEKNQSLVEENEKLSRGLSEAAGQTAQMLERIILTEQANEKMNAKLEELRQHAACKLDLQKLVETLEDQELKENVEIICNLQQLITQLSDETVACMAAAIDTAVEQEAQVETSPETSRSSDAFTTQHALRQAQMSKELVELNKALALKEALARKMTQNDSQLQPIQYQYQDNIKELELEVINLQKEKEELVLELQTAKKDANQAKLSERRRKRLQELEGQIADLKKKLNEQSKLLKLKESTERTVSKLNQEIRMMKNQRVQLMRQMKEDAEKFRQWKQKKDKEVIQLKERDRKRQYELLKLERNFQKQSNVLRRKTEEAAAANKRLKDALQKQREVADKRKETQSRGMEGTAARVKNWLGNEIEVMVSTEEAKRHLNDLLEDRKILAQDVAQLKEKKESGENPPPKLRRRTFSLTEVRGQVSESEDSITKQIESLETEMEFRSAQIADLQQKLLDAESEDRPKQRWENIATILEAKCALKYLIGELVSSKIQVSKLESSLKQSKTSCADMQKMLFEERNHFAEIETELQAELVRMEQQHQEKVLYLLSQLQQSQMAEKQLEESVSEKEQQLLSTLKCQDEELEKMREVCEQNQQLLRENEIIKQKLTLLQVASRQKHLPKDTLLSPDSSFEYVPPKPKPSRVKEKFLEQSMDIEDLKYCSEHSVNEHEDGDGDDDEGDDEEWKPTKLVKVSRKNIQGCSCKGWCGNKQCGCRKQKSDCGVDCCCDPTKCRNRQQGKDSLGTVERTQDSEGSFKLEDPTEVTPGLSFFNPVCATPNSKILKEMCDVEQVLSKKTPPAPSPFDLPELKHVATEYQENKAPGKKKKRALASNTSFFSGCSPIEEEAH

[2] = molecular target: T2, kinesin-4ΔN (human kinesin-4, aa 733-1232) (human, UniProt O95239 733-1232); assay: pull-down
T2 sequence (looked up): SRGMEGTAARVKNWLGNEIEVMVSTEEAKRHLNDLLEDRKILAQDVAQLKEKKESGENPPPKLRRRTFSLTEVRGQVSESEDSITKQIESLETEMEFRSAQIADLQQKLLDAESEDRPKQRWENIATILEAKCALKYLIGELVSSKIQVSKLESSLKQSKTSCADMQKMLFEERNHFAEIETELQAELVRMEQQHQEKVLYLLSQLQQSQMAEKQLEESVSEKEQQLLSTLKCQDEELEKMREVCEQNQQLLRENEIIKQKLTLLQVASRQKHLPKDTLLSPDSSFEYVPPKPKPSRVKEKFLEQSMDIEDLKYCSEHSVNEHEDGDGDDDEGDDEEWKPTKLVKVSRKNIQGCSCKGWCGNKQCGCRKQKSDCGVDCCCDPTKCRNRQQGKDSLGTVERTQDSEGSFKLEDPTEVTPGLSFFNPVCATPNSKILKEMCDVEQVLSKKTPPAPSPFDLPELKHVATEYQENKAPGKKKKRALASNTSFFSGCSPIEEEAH

[3] = molecular target: T3, kinesin-4 (human full-length, unlabeled) (human, UniProt O95239 1-1232); assay: TIRF microscopy, end-tag formation on immobilized microtubules
T3 sequence (looked up): T1 chain

B1: kinesin-4-GFP (human full-length kinesin-4, GFP-labeled), O95239 1-1232 (natural protein)
chain: T1 chain
Which stoichiometry N [1] does the source give for B1 here?
Its stoichiometry N is 2.

B2: PRC1NSΔC (human PRC1, aa 1-486) (domain or fragment, UniProt O43663 1-486, looked up)
chain: MRRSEVLAEESIVCLQKALNHLREIWELIGIPEDQRLQRTEVVKKHIKELLDMMIAEEESLKERLIKSISVCQKELNTLCSELHVEPFQEEGETTILQLEKDLRTQVELMRKQKKERKQELKLLQEQDQELCEILCMPHYDIDSASVPSLEELNQFRQHVTTLRETKASRREEFVSIKRQIILCMEALDHTPDTSFERDVVCEDEDAFCLSLENIATLQKLLRQLEMQKSQNEAVCEGLRTQIRELWDRLQIPEEEREAVATIMSGSKAKVRKALQLEVDRLEELKMQNMKKVIEAIRVELVQYWDQCFYSQEQRQAFAPFCAEDYTESLLQLHDAEIVRLKNYYEVHKELFEGVQKWEETWRLFLEFERKASDPNRFTNRGGNLLKEEKQRAKLQKMLPKLEEELKARIELWEQEHSKAFMVNGQKFMEYVAEQWEMHRLEKERAKQERQLKNKKQTETEMLYGSAPRTPSKRRGLAPNTPGKAR
B2 was tested. Which Kd [2] did it give?
Its Kd is 300 ± 30 nM.

B3: GFP-PRC1 (human full-length PRC1, aa 1-620, GFP-labeled) (natural protein, UniProt O43663 1-620, looked up)
chain: MRRSEVLAEESIVCLQKALNHLREIWELIGIPEDQRLQRTEVVKKHIKELLDMMIAEEESLKERLIKSISVCQKELNTLCSELHVEPFQEEGETTILQLEKDLRTQVELMRKQKKERKQELKLLQEQDQELCEILCMPHYDIDSASVPSLEELNQFRQHVTTLRETKASRREEFVSIKRQIILCMEALDHTPDTSFERDVVCEDEDAFCLSLENIATLQKLLRQLEMQKSQNEAVCEGLRTQIRELWDRLQIPEEEREAVATIMSGSKAKVRKALQLEVDRLEELKMQNMKKVIEAIRVELVQYWDQCFYSQEQRQAFAPFCAEDYTESLLQLHDAEIVRLKNYYEVHKELFEGVQKWEETWRLFLEFERKASDPNRFTNRGGNLLKEEKQRAKLQKMLPKLEEELKARIELWEQEHSKAFMVNGQKFMEYVAEQWEMHRLEKERAKQERQLKNKKQTETEMLYGSAPRTPSKRRGLAPNTPGKARKLNTTTMSNATANSSIRPIFGGTVYHSPVSRLPPSGSKPVAASTCSGKKTPRTGRHGANKENLELNGSILSGGYPGSAPLQRNFSINSVASTYSEFAKDPSLSDSSTVGLQRELSKASKSDATSGILNSTNIQS
Does B3 bind [3]?
Result: binds

B4: PRC1ΔN2SΔC (human PRC1, aa 41-486) (domain or fragment, UniProt O43663 41-486, looked up)
chain: EVVKKHIKELLDMMIAEEESLKERLIKSISVCQKELNTLCSELHVEPFQEEGETTILQLEKDLRTQVELMRKQKKERKQELKLLQEQDQELCEILCMPHYDIDSASVPSLEELNQFRQHVTTLRETKASRREEFVSIKRQIILCMEALDHTPDTSFERDVVCEDEDAFCLSLENIATLQKLLRQLEMQKSQNEAVCEGLRTQIRELWDRLQIPEEEREAVATIMSGSKAKVRKALQLEVDRLEELKMQNMKKVIEAIRVELVQYWDQCFYSQEQRQAFAPFCAEDYTESLLQLHDAEIVRLKNYYEVHKELFEGVQKWEETWRLFLEFERKASDPNRFTNRGGNLLKEEKQRAKLQKMLPKLEEELKARIELWEQEHSKAFMVNGQKFMEYVAEQWEMHRLEKERAKQERQLKNKKQTETEMLYGSAPRTPSKRRGLAPNTPGKAR
B4 was tested. Which Kd [2] did it give?
The Kd was 1600 ± 110 nM.

B5: PRC1NSΔC5 (human PRC1, aa 1-303) (domain or fragment, UniProt O43663 1-303, looked up)
chain: MRRSEVLAEESIVCLQKALNHLREIWELIGIPEDQRLQRTEVVKKHIKELLDMMIAEEESLKERLIKSISVCQKELNTLCSELHVEPFQEEGETTILQLEKDLRTQVELMRKQKKERKQELKLLQEQDQELCEILCMPHYDIDSASVPSLEELNQFRQHVTTLRETKASRREEFVSIKRQIILCMEALDHTPDTSFERDVVCEDEDAFCLSLENIATLQKLLRQLEMQKSQNEAVCEGLRTQIRELWDRLQIPEEEREAVATIMSGSKAKVRKALQLEVDRLEELKMQNMKKVIEAIRVELVQ
B5 was tested. Which Kd [2] did it give?
The Kd was 300 ± 60 nM.

B6: PRC1NSΔC4 (human PRC1, aa 1-231) (domain or fragment, UniProt O43663 1-231, looked up)
chain: MRRSEVLAEESIVCLQKALNHLREIWELIGIPEDQRLQRTEVVKKHIKELLDMMIAEEESLKERLIKSISVCQKELNTLCSELHVEPFQEEGETTILQLEKDLRTQVELMRKQKKERKQELKLLQEQDQELCEILCMPHYDIDSASVPSLEELNQFRQHVTTLRETKASRREEFVSIKRQIILCMEALDHTPDTSFERDVVCEDEDAFCLSLENIATLQKLLRQLEMQKSQ
With B6 as the binder, how does the Kd [2] read?
Its Kd is 300 ± 40 nM.

B7: PRC1NSΔC3 (human PRC1, aa 1-168) (domain or fragment, UniProt O43663 1-168, looked up)
chain: MRRSEVLAEESIVCLQKALNHLREIWELIGIPEDQRLQRTEVVKKHIKELLDMMIAEEESLKERLIKSISVCQKELNTLCSELHVEPFQEEGETTILQLEKDLRTQVELMRKQKKERKQELKLLQEQDQELCEILCMPHYDIDSASVPSLEELNQFRQHVTTLRETKA
How did the Kd [2] turn out when B7 was run?
The Kd was 1200 ± 400 nM.

B8: PRC1NSΔC2 (human PRC1, aa 1-117) (domain or fragment, UniProt O43663 1-117, looked up)
chain: MRRSEVLAEESIVCLQKALNHLREIWELIGIPEDQRLQRTEVVKKHIKELLDMMIAEEESLKERLIKSISVCQKELNTLCSELHVEPFQEEGETTILQLEKDLRTQVELMRKQKKER
For B8, which Kd [2] is on record?
The Kd was 2300 ± 600 nM.
